Assay results: US20030087315A1 (MCP HAHNEMANN UNIVERSITY, published 2003)
Each block holds one binder with its values, some of them ahead of it. No end group written: not given here. *: point of attachment. Biotin = O=C1N[C@H]2[C@H](CS[C@H]2CCCCC(=O)*)N1

Experiments:
[1] = biological target: T1, α2(I) chain of type I collagen (mouse, UniProt Q01149 97-1110, limits assumed); test: filter binding assay, electroblotted chains, avidin-peroxidase
T1 construct: Denatured chain on a nitrocellulose filter; pepsin-treated collagen
T1 sequence (Q01149 97-1110 limits assumed): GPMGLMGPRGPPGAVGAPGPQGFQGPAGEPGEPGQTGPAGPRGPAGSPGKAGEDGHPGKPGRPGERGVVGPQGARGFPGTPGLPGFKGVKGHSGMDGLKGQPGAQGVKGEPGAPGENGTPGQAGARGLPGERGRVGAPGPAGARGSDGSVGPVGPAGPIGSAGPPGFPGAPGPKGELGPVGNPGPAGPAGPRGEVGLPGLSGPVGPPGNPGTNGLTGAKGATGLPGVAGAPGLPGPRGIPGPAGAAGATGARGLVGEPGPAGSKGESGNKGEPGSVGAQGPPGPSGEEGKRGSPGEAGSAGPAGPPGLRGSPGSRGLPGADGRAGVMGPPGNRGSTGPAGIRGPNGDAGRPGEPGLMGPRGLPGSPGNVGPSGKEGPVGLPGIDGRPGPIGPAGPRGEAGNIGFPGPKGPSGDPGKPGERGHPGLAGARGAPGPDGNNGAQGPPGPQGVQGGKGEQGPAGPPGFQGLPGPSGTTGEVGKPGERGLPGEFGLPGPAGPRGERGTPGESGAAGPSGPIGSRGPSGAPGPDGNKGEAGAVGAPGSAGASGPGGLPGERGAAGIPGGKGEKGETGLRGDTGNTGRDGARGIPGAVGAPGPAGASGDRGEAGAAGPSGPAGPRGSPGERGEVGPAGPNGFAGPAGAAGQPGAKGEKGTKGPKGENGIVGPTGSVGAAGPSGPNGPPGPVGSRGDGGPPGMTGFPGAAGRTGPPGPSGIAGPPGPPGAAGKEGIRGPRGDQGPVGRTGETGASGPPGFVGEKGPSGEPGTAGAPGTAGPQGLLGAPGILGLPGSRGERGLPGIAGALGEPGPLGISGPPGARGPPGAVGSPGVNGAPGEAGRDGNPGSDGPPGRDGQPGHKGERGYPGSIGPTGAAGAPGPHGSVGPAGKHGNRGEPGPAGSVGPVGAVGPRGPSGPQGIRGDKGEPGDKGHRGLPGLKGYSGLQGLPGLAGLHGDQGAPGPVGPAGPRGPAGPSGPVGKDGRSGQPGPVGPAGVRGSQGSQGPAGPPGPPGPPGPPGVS
Source text: (§1) The α1(I) and α2(I) chains of type I collagen or CNBr fragments of the chains were separated by polyacrylamide gel electrophoresis and electroblotted onto filters. The filters were then hybridized with a biotinylated telopeptide followed by assay of the washed filter with streptavidin-horseradish peroxidase. “CNBr+” indicates α1(I) or α2(I) chains which were digested with cyanogen bromide.
Type I collagen extracted with 0.5 M acetic acid from mouse skin was digested with pepsin, and the a chains separated by gel electrophoresis in SDS. To generate CNBr peptides, gel slices containing α1(1) and α2(I) chains were placed into tubes and a chains were digested with 10 mg/ml or 200 mg/ml CNBr in 70% formic acid at room temperature overnight. The gel slices were equilibrated with 0.05 mM Tris-HCl buffer (pH 6.8) over 3 hours. Gel pieces containing CNBr peptides derived from individual collagen a chains were transferred into the wells of the second gel prepared with a 6% polyacrylamide stacking gel and 12% polyacrylamide separating gel with 0.5 M urea. After electrophoresis, the gel was electroblotted overnight at 4° C. onto a nitrocellulose filter (Millipore). To study binding of telopeptides to collagen fragments, the method described by Fujisawa et al. (Fujisawa et al., 1994, Calcif. Tiss. Int. 56:140-144) was used. The filters were blocked with 1% bovine serum albumin (Sigma) and then incubated overnight with 20 ml of 5 mg/ml peptide that was substituted at the N-terminus with biotin (synthesized for us by American Peptide Company, Inc.). The filter was washed three times with Tris-buffered saline containing 0.02% Tween (TBST) and incubated 30 min with a 1:30,000 dilution of horseradish peroxidase conjugated with avidin (Sigma). The bands were detected by chemiluminescence (ECL; Amersham) after exposure to an X-ray film for 3 to 10 min.

[2] = biological target: T2, α1(I) chain of type I collagen (mouse, UniProt P11087 168-1181, limits assumed); test: electroblot assay, FIG. 5C
T2 construct: Denatured chain on a nitrocellulose filter; pepsin-treated collagen; also called α1 chain
T2 sequence (P11087 168-1181 limits assumed): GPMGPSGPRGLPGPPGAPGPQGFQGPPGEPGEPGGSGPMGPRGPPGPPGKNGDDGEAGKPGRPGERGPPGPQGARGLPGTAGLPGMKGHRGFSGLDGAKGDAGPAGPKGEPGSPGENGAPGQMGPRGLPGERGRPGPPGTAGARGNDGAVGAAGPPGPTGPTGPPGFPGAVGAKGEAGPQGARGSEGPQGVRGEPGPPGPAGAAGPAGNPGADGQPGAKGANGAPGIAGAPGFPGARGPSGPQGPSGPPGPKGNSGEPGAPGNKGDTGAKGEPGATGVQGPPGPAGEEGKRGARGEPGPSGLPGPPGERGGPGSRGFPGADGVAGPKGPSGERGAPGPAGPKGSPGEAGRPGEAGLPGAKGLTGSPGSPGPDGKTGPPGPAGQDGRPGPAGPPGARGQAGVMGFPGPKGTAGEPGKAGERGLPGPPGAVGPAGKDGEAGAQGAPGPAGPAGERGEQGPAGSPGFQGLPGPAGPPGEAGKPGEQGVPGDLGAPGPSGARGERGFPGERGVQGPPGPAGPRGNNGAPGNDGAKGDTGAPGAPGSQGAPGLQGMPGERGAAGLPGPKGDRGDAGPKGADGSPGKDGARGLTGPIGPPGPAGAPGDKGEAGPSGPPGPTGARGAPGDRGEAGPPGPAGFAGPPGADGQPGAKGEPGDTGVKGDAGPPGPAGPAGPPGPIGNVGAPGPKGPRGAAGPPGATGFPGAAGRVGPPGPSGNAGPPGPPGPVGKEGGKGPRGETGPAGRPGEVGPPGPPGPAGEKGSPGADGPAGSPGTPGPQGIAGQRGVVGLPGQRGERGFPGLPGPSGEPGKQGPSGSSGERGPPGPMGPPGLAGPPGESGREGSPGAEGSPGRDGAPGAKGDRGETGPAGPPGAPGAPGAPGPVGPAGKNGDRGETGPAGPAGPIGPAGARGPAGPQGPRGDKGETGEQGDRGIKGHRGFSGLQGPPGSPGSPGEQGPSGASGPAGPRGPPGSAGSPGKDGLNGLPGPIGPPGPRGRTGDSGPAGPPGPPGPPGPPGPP
Source text: as §1
(§2) Type I collagen extracted with 0.5 M acetic acid from mouse skin was digested with pepsin, and the a chains separated by gel electrophoresis in SDS. To generate CNBr peptides, gel slices containing α1(1) and α2(I) chains were placed into tubes and a chains were digested with 10 mg/ml or 200 mg/ml CNBr in 70% formic acid at room temperature overnight. The gel slices were equilibrated with 0.05 mM Tris-HCl buffer (pH 6.8) over 3 hours. Gel pieces containing CNBr peptides derived from individual collagen a chains were transferred into the wells of the second gel prepared with a 6% polyacrylamide stacking gel and 12% polyacrylamide separating gel with 0.5 M urea. After electrophoresis, the gel was electroblotted overnight at 4° C. onto a nitrocellulose filter (Millipore). […] The bands were detected by chemiluminescence (ECL; Amersham) after exposure to an X-ray film for 3 to 10 min.

[3] = biological target: T2, α1(I) chain of type I collagen; test: electroblot assay, FIG. 5B
Source text: as §1, §2

- binding result [2]: binds
B1: biotinylated N-telopeptide of the α1 chain of human type I collagen (peptide)
peptide: Biotin-QLSYGYDEKSTGGISVP
notes: also called biotinylated α1 N-telopeptide
- binding result [1]: no binding (tested: 5 mg/ml peptide (so in the source))

B2: biotinylated N-telopeptide of α2 chain of human type I collagen (peptide, UniProt P08123 80-90, looked up)
peptide: Biotin-QYDGKGVGLGP
notes: domain: N-telopeptide; also called biotinylated α2 N-telopeptide
- binding result [1]: no binding (tested: 5 mg/ml peptide (so in the source))

- binding result [3]: binds
B3: biotinylated C-telopeptide of α2 chain of human type I collagen (peptide)
peptide: Biotin-GGGYDFGYDGDFYRA
notes: also called biotinylated F3
- binding result [1]: no binding (tested: 5 mg/ml peptide (so in the source))
